Publication PMC2151178

Target: DdUnc104 (Dictyostelium Unc104), 245-kD kinesin (Dictyostelium discoideum (endogenous in wild-type cells)) (UniProt Q9NGQ2)
Assay: SEC + other: sucrose density gradient velocity sedimentation

stoichiometry N: 2
Substance: DdUnc104 (Dictyostelium Unc104), 245-kD kinesin, Q9NGQ2 1-2205
